Measured values published in the domain aggregation screens of Martell et al. (2025).

Test: soluble fraction after stress (log2 fold change); higher = more stays soluble; pooled small domains, quantitative proteomics
Conditions: stress: 50 degC
How it was run: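 Pooled custom libraries of small protein domains were each held under stress at 50°C. The read-out, high-throughput quantitative proteomics, tracked how much of each protein stayed soluble. This is reported as a base-two log fold change used to indicate aggregation propensity. Higher values mean more protein remains in solution.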

Going from “HMIINFDAIRLTTELNKYNRHKAIPNSFFDGTFTILDVRDLYDSLSPKVQKIADTLIEQYNVDVKQ” to “HMFKDVTVPSVINKTEAEATNMLKGLNLVVSVEYEENANKSDGIVTAQNVNANKVIKEGETVTITVNKQP”, the “soluble fraction (log2)” value rises from -1.85 to 0.00765.

Going from “HMDNRLFKMLYYLLDKERATAPELAAEFEVSTRTIYRDVEALSSAGIPIYAEPGRNGGIYLLQD” to “HMVKVSVYPNPAVDRITISGEVKAYAVYDATGKVVMKDTDYRGGAIGVSHLPAGIYIVRTDAGAVTVNK”, the “soluble fraction (log2)” value rises from -2.21 to -0.652.

First: HMEDEEILNEIRHTEQYVYYFGNYIMEHHVSRGLSKEKVIASLARELQIEIADIREDFDGMIEQIKTNILN
Second: HMHSEEAALLHRYIDSLEEPQHTVVVMRDIGGYSFEEIASVVQLKEAHIWMILSRARRKLRELYIKTMDHH
The “soluble fraction (log2)” value of the first is lower: -0.163 for the first, 0.138 for the second.

Going from “HMEAFDYLGRRTRDLLERQGWTTVPLVRDAYLAVPGGERLLQVPGFGRKSLREVRRWLWLQIGDPRFE” to “HMNVPFGFDEVNGKLVKNEEEQAIISEIKSLKNKGLSLRKIAEALNGRGIATKNGKAWTAVQIQRIA”, the “soluble fraction (log2)” value rises from -1.36 to -0.0386.

Compared with “HMDGQGIRSITPEYYLSDSATKMPDASSSGWKSVPDDYIDKHYYWVRSKILWDDGTYTTTTPVL”, “HMEIITIVSDINGKRIDAWLSEKLENYSRSFIQKLIQNENVKVNNNIVKANYKLKNGDAVAVSIPEPV” is higher in “soluble fraction (log2)” value: -0.364 for the first, no less than 0.62 for the second.

Compared with “HMAETLRLVGATNLNTLARARHPDDLAARNEFRRAIAQANPALFAGKSKVGSVSLPAGTVLALPPEV”, “HMWNKGETKIPTQAQNELIKRRQAGATWTSLSEWLKATYGIDIHRTNIQRWYDKEVYLDQEN” is lower in “soluble fraction (log2)” value: 0.184 for the first, -0.316 for the second.

Compared with “HMEPEYIGELEKRIKKLKTHTYSSIDRLMKSISKKYKITTQVLHDDFKNKHNEIPDEWVKQF”, “HMGRTGTVVVSPSLNVRTGPWGEIIGSLYNGNKVEIIGSSGDWYQISFGGKTAYVHSDYVVDGG” is lower in “soluble fraction (log2)” value: -0.0578 for the first, -0.51 for the second.

Compared with “HMENVQLRNFAIKATEAGIIKLSSDQRTFMWASNQKKLMTVPFDEHPYSAMAQFFKTDEGLAVFKSIEKKL”, “HMKFKDYYAALGIDRNADLEQIKKAYRKLARQYHPDVSKAPDAEARFKDAAEAYATLKNPEKRAAYDELGS” is higher in “soluble fraction (log2)” value: -1.12 for the first, 0.062 for the second.

First: HMGWQPDPLTTRERLVAELATQASNAQIAEQLHLSVRTVEGHLAHVYTKLGITTRRELPAALAGAR
Second: HMESIEAGTFELDNKTSIDISEDEANLLNKMFEELTETNSKDMYGVMVADEAGFNEILEFAKENL
The “soluble fraction (log2)” value of the first is lower: -0.891 for the first, 0.167 for the second.

“HMIAAPFVVKDIRVDGVQPATGEAIISSLPVKVGQTATDADVSNVVRQLFSLNRFQNVQATREGNTLVIKV” and “HMSFDTFKKVFSNLVEKSGYSDAEIARRLGVNRSTISRWKSGEQSPPLPKVKEIANFFGVSPMVFVD” are within 0.2 log units of each other in “soluble fraction (log2)” value: 0.0499 for the first, 0.0554 for the second.

Going from “HMSPTDKATVNVYALNVRTGPGTNYKVLGSVIKGTELQVLGSSGKWLKVKYGNREAYVAGWLVK” to “HMSTSFQVQVSVLDLRIRKEPTVKGQEVGKISKGIHTITETRSADGYTWGKLESGQGWIALEFTTKLD”, the “soluble fraction (log2)” value rises from -1.62 to -0.194.

Compared with “HMDQHPYGEDSFRGDNPPAGFDIKGNEDSMKFHEPSSPWYGRTIAEVWFRSAAAAEAAGFVNAV”, “HMVINQRKLNLLSIYSSGSEKRAIILFPTGQTKFVKVGDTLDGGRVAAIGTSEIRYLKGGNNLVLRIPG” is lower in “soluble fraction (log2)” value: -0.113 for the first, -2.63 for the second.

Going from “HMKEEVSVPDIKGMTYEEAEAKLAKYDLEIEKGETVKASEQYEEGQISSQEPEAGSKVKEGSTIVVDVVE” to “HMTTIAQNISNYRTRANMTQQQVADKLSVSHHTVSKWELGINTPSVEDMQKLAQVFGVTITELVVD”, the “soluble fraction (log2)” value falls from 0.316 to -0.239.

“HMRGPDLSKDFHEYISSQWMFFGRNAYQIAEQINKDTQLMSKYGKTTPSGVHYHIKQIQQEMEN” and “HMISKTFEINEDNINNRLDIFLANQFDNLSRGIVQKLIESHSVSVSGNFVEKDYKLKLGDIIDVEINLS” are within 0.2 log units of each other in “soluble fraction (log2)” value: -0.398 for the first, -0.486 for the second.

“HMNREENIQIGRDLLERELRKQGMDLQENLRQEVLLDGAKKLGFNNTDDLLAAIGDLKVTPAMFIGKIA” and “HMGETRWTYDDFGNILTEKAAPYSATEFLGKTYTYDTDNRYLKTVTDALGRTTTTLSYDKYGNPLSVMD” are within 0.2 log units of each other in “soluble fraction (log2)” value: 0.0695 for the first, 0.101 for the second.

“HMNTKHVFIIEQDDEKKRLDIFLVEKLQDSRSFLKKGIVEGWVKVNESVVKPNYKLKQKDQITVIIPP” and “HMEPREEFTFADLRANGLNGTAAAAGRRAALGAALGIGYGNAKQFLRRLNHYGVTRSEWEAALADLDE” are within 0.2 log units of each other in “soluble fraction (log2)” value: -0.278 for the first, -0.419 for the second.

First: HMLLTASNYFKETKGINFSELPEALQKGHSFVIKSTENGTNWNAYSTSQNIQRVIDAYFSKLDEYLEKNQ
Second: HMDTITDSYTLEKGKLRAKVMEYELPESKKKEYSATFEYRGVYYHMIGIIEKADFEEILKNLHFP
The “soluble fraction (log2)” value of the first is lower: -0.611 for the first, -0.165 for the second.

First: HMRKTLASTAYDSIKAGIVSGEINNNLLLSENTLAKILNMSRTPIREAIKRLEAESYLKSVDGVGLIVQE
Second: HMVAMGQRVVPLTHLSIDDVRRLLESTYGKDSGIEVTKPGTAAKGVIVTAPRTELDGIVALVKQA
The “soluble fraction (log2)” value of the first is lower: -0.211 for the first, 0.0987 for the second.

“HMGKEIEAPDFKNMTLKEAKIAAKEYKIRIKKGDEVVSEEVEKGRIVSQDPDAGTTIKTGSTVTVNISKGL” and “HMAEANTEADFVAIGVRAELLPILQKLGVHTIEQLKGIKATKLFNDIPGMRKKLKLDAVQNPTLQEIEGWL” are within 0.2 log units of each other in “soluble fraction (log2)” value: 0.126 for the first, 0.00541 for the second.
